Experimental data taken from US7232659.
Blank lines part the entries; values can stand above or below the substance they belong to.

What was measured:
[1] = target: FPR-GFP fusion protein (human; Aequorea victoria) (UniProt P21462); assay: flow cytometry, LRG assembly of 30 nM FPR-GFP on αβγ DCNi beads, ligand varied (FIG. 13B); exponent printed as 10^6, read as 10^-6
[2] = target: β2-adrenergic receptor-green fluorescent protein fusion protein (β2AR-GFP) (human; Aequorea victoria) (UniProt P07550); assay: flow cytometry, soluble Gαsβ1γ2 competing with bead-borne Gαsβ1γ2 for isoproterenol-bound β2AR-GFP (FIG. 4E)
[3] = target: hexahistidine-tagged G protein heterotrimer Gαsβ1γ2 (human) (UniProt P63092); assay: flow cytometry, ARG assembly of 20 nM β2AR-GFP on Gαsβ1γ2 Ni beads, receptor occupied by dobutamine (FIG. 5B)
Sequence of hexahistidine-tagged G protein heterotrimer Gαsβ1γ2 (human) (P63092 other isoform, or with tags, fused parts or gaps, chain 1 of 3): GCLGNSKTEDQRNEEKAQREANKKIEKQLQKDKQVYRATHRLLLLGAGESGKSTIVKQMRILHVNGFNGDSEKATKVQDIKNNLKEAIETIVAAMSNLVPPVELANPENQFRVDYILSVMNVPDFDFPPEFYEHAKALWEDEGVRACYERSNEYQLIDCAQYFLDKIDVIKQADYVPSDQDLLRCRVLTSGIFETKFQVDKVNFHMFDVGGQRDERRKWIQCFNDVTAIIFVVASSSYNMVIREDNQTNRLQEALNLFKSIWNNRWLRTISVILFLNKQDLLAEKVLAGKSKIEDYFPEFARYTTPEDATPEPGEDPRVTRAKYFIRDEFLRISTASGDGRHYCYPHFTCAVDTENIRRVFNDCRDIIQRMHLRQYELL
Sequence of hexahistidine-tagged G protein heterotrimer Gαsβ1γ2 (human) (P62873 2-340, chain 2 of 3, further chain): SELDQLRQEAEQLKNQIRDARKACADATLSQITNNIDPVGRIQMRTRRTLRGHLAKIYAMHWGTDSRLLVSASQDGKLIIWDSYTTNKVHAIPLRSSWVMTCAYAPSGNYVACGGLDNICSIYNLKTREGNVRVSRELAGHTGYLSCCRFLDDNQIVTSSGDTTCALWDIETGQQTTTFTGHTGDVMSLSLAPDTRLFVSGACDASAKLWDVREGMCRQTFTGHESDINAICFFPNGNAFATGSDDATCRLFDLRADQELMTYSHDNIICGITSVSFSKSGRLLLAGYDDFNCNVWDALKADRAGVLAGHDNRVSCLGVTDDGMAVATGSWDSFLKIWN
Sequence of hexahistidine-tagged G protein heterotrimer Gαsβ1γ2 (human) (P59768 other isoform, or with tags, fused parts or gaps, chain 3 of 3, further chain): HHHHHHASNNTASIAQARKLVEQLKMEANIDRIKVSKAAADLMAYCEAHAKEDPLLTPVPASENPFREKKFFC

[4] = target: hexahistidine-tagged G protein heterotrimer Gαsβ1γ2 (human) (UniProt P63092); assay: flow cytometry, ARG assembly of 20 nM β2AR-GFP on Gαsβ1γ2 Ni beads, receptor occupied by salbutamol (FIG. 5B)
[5] = target: hexahistidine-tagged G protein heterotrimer Gαsβ1γ2 (human) (UniProt P63092); assay: flow cytometry, Gαsβ1γ2 on Ni beads, 40 nM β2AR-GFP with 1 mM isoproterenol; background with 0.1 mM GTPγS about 10,000 β2AR-GFP/bead

EC50 [1]: 5.3 µM
Substance: fML (peptide)

Kd [2]: 90 to 110 nM
Substance: hexahistidine-tagged G protein heterotrimer Gαsβ1γ2 (from UniProt P63092 2-380; P62873 2-340; P59768 2-68)

ARG/bead level against the full agonist isoproterenol [3]: 10 percent
ARG/bead level against the full agonist isoproterenol [4]: 30 percent
total fluorescence, β2AR-GFP/bead (β2AR-GFP/bead) [5]: 80000
Substance: β2-adrenergic receptor-green fluorescent protein fusion protein (β2AR-GFP) (from UniProt P07550 1-413; P42212 1-238)
